Results from article PMC8396674.
“And” between values parts separate entries of the source, which are not always exact repeats. Identical values can stand only once. One block for each substance: values may come before it.

Columns and labels:
[1] = molecular target: gC1q domain of human otolin-1, natural variant R402P (human); assay: AUC; sedimentation velocity, 0.1, 0.25 and 0.5 mg/mL protein in 10 mM HEPES pH 7.0, 500 mM NaCl, 5% glycerol with 10 mM CaCl2, 20 °C, 50,000 rpm, c(s) analysis; also 0.25 mg/mL with 1 mM DTT
[2] = molecular target: gC1q domain of human otolin-1, natural variant R402P (human); assay: AUC; sedimentation velocity, 0.1, 0.25 and 0.5 mg/mL protein in 10 mM HEPES pH 7.0, 500 mM NaCl, 5% glycerol with 1 mM EDTA (no Ca2+), 20 °C, 50,000 rpm, c(s) analysis; also 0.25 mg/mL with 1 mM DTT
[3] = molecular target: gC1q domain of human otolin-1, natural variant R342W (human); assay: AUC; sedimentation velocity, 0.1, 0.25 and 0.5 mg/mL protein in 10 mM HEPES pH 7.0, 500 mM NaCl, 5% glycerol with 10 mM CaCl2, 20 °C, 50,000 rpm, c(s) analysis; also 0.25 mg/mL with 1 mM DTT
[4] = molecular target: gC1q domain of human otolin-1, natural variant R342W (human); assay: AUC; sedimentation velocity, 0.1, 0.25 and 0.5 mg/mL protein in 10 mM HEPES pH 7.0, 500 mM NaCl, 5% glycerol with 1 mM EDTA (no Ca2+), 20 °C, 50,000 rpm, c(s) analysis; also 0.25 mg/mL with 1 mM DTT
[5] = molecular target: gC1q domain of human otolin-1, natural variant Q426R (human); assay: AUC; sedimentation velocity, 0.1, 0.25 and 0.5 mg/mL protein in 10 mM HEPES pH 7.0, 500 mM NaCl, 5% glycerol with 10 mM CaCl2, 20 °C, 50,000 rpm, c(s) analysis; also 0.25 mg/mL with 1 mM DTT
[6] = molecular target: gC1q domain of human otolin-1 (hOtolC1q), wild type (human); assay: as above
[7] = molecular target: gC1q domain of human otolin-1, natural variant R339S (human); assay: as above

stoichiometry N [1]: 2
stoichiometry N [2]: 2
Substance: gC1q domain of human otolin-1, natural variant R402P (domain or fragment)

stoichiometry N [3]: 3
stoichiometry N [4]: 2 and 4
Substance: gC1q domain of human otolin-1, natural variant R342W (domain or fragment)

Substance: gC1q domain of human otolin-1, natural variant Q426R (domain or fragment)
stoichiometry N [5]: 3

Substance: gC1q domain of human otolin-1 (hOtolC1q), wild type (domain or fragment)
stoichiometry N [6]: 3

Substance: gC1q domain of human otolin-1, natural variant R339S (domain or fragment)
stoichiometry N [7]: 3
